# ± gives the uncertainty stated by the source.
# Assay: amyloid nucleation score (Sup35N fusion, yeast selection) (log enrichment); library NNK2; higher = more nucleation; inactive = no reads after selection
# In short: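 Nucleation score is defined as the DiMSum log enrichment of output over input reads, with centring on the mode score of non-aggregating sequences. A minimum of 100 input reads was required for each sequence. Reads came from Illumina sequencing of plasmid inserts from psi-negative yeast expressing Sup35N fused to peptides of 20 random codons, induced with 100 μM copper sulfate for 24 hours and grown 7 days at 30°C on medium lacking adenine and uracil.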
row,Substance,amyloid nucleation score
1,RGKSKYSRLGWPGNLEHKGL,0.388 ± 0.46
2,TLCGFNKGAAIGWCTWNSEK,4.05 ± 0.13
3,YKRLEMLRMSCTIWTITPPR,0.234 ± 0.32
4,IDLLFDFTDLMWLIYPVFLL,-1.93 ± 0.75
5,TVTRLSYGMFHQRNRVC,-0.267 ± 0.45
6,VYMPYHLSYMLEPRQNSVLS,-0.744 ± 1.1
7,MDGNDYAVVR,0.861 ± 0.23
8,LEAMVTITT,0.273 ± 0.39
9,SSDTIQYYSKQNMVRRENC,1.09 ± 0.52
10,GGSKLVLLFE,-0.81 ± 0.76
11,IWLDSHSSAWISWTIMI,-0.585 ± 0.41
12,RYNLKQCL,inactive
13,ILSRTKVFYNSSCETDVMWL,4.17 ± 0.085
14,FLRFLVCLG,-0.22 ± 1.1
15,FTIHYAGTGCWMGMYINSDY,2.44 ± 0.062
16,LMINGRLRDITMDATVYCNS,0.764 ± 0.2
17,GGVYASKYLCGYIKLSLKAS,-0.154 ± 0.3
18,IHNKWNKMYDRPYLIKIVAS,-0.37 ± 0.36
19,NFLWVLSRKSHGIPYRKFSN,inactive
20,RVWSY,inactive
21,NVLCKRVMMV,0.384 ± 0.66
22,FGFFTTYSELAVQVIQSAVT,-0.032 ± 1.1

row,Substance,amyloid nucleation score
1,TIWGYARC,2.67 ± 0.11
2,GSRCITQVLA,0.157 ± 0.49
3,CGSQKWVQYKIMKWYK,0.627 ± 0.57
4,NVWILNNYGQCIKS,5.254 ± 0.023
5,PSHFVGFCAHSYDVGVFMWV,0.077 ± 0.42
6,IPIWFERIALSDFKLVFSHN,inactive
7,HNNCNRFCQSIVLH,6.34 ± 0.078
8,FFLYFVFCF,2.67 ± 0.085
9,LDSQMWNMSGQVRTRIGRSV,0.459 ± 0.43
10,LICLSMSQCMDCNLGNSWWV,inactive
11,DLRRSKSFDDTNEHWHSGFR,-0.607 ± 0.64
12,KMFVILIIHTLLGAITAVCG,0.186 ± 0.76
13,NINMWSLCRFLWDAFARR,0.378 ± 0.26
14,HGGRKG,1.42 ± 0.31
15,VWHVDTAVLTRA,1.08 ± 0.41
16,LHAHYWCRVSKEPCCWCKMG,1.02 ± 0.49
17,FPRSGYITHLDCATR,-0.589 ± 0.55
18,SVKWKTRDEKS,-0.711 ± 0.54
19,ALFQECYPGMGNYQGSVATT,1.09 ± 0.35
20,VSELGSGSFIFCTFLADFHM,6.3 ± 0.079
21,VAYYLCAGTSGDTFGKANQS,0.222 ± 0.8
22,HYGNSWY,0.958 ± 0.48

row,Substance,amyloid nucleation score
1,FGKCYYLFVSYHYMLGLACT,-0.549 ± 1
2,FWIEDF,-0.291 ± 1.1
3,NLHLSGKMGSPTFRVRIYAH,inactive
4,RGCMEVWVLYQSNALSM,4.18 ± 0.071
5,KGFAKILLGTSCLMSV,-0.848 ± 0.62
6,EDDVSYNSFSGQASLWKFPK,-0.818 ± 0.56
7,AFFNE,6.023 ± 0.039
8,FLILAHLGIKNYNWV,3.885 ± 0.037
9,VVNVVSGYGAE,0.619 ± 0.19
10,WAWGCWVHSESVAWSCMCKA,0.476 ± 0.28
11,SVLAGDLNLRLVFYCMFMYH,1.61 ± 0.31
12,RDMWKVNHGNTACIGSYRSV,0.671 ± 0.35
13,RGDHDCW,0.77 ± 0.32
14,STAKYVYYTLLR,0.204 ± 0.65
15,SVYAGVLM,-0.555 ± 0.63
16,MRYSPWQGTHILWVLNTTSY,1.82 ± 0.32
17,MTKHV,0.241 ± 0.8
18,SYYVLRASTELYGFHVFFLR,-0.017 ± 1
19,ACLHFVSYSELAVFDFSFGK,6.89 ± 0.079
20,HNMPARKYINSLMTFHVRWP,-0.321 ± 0.79
21,TVIAEPIRDEQCTIYHRCGV,0.554 ± 0.38
22,GYSVH,-0.632 ± 1.1

row,Substance,amyloid nucleation score
1,MYISKVFDALLLLRREPRHR,inactive
2,SHGAWTLFLSVIFCSAQYR,4.06 ± 0.087
3,SWEKQ,inactive
4,RIRHCGQFYSMHGKRRIATH,1.17 ± 0.34
5,QSAFNN,inactive
6,IVLTLDLSRRVGMRNCVLLG,-0.063 ± 0.54
7,RAQRLP,-0.241 ± 0.55
8,VTALDLMNGIWSRNMPGEVV,-0.18 ± 0.19
9,APKGMTLFPQMLTLMCNTVG,0.56 ± 0.74
10,NSSVW,-1.01 ± 0.48
11,PKSLCYSTLTRGWCQM,-0.418 ± 1
12,DTYDSCMSSVMISFR,0.343 ± 0.51
13,YNLSSLLRCDLAAKTRTIFM,-0.575 ± 0.35
14,GNLLKREFAIVFFSVYKQEA,-0.27 ± 0.76
15,KIVCDPGCIFMPFLCVCLLW,6.07 ± 0.082
16,KGGQK,-0.493 ± 0.34
17,QAPLWENSVSVPRLWWNSLS,-0.342 ± 1.1
18,SGFLDLPVYPVYNHNRTKMI,0.267 ± 0.57
19,CRNLPGVCEMPSGVANYRVL,-0.547 ± 1.1
20,VPLEYSRVI,2.15 ± 0.15
